The values below are quoted from earlier work in article PMC8727504.

As usually defined, the Kd is the free concentration of one partner at which half of the binding sites on the other are occupied at equilibrium, for simple one-to-one binding.

This data set has as its target sMMOH (Methylosinus trichosporium) (UniProt P27353). The data set can be described thus: competition.

Turning to MMOB (from UniProt P27356), the Kd was < 100 nM.
